Data reported in patent US20170362324A1 (Biogen, published 2017).

How the values were obtained:
[1] = molecular target: T1, human αvβ5 expressed on BaF3 cells (stably transfected with human αv and β5 subunits) (human, UniProt P06756 31-1048; P18084 24-799); test: cell-based or functional assay
[2] = molecular target: T1, human αvβ5 expressed on BaF3 cells …; test: FACS on αvβ5-BaF3 cells, unpurified antibody
Protocol: FACS Binding Assay: Cells were washed one time in PBS, and then resuspended in FACS buffer (1×PBS, 1% BSA, 1 mM CaCl₂, and 1 mM MgCl₂). 1×10⁶ cells were then incubated on ice for 1 hr in FACS buffer containing the test antibody in a total volume of 50 μl. After incubation, the cells were washed two times with ice cold FACS buffer, resuspended in 50 μl of FACS buffer containing 3 μg/ml goat anti-mouse IgG AlexaFluor488 (Jackson ImmunoResearch), and incubated on ice for 30 min. The cells were then washed twice with ice cold FACS buffer and fixed in 1% PFA overnight. Cell aggregates were removed by filtering through 40 μm filter plates (Millipore) and binding of the labeled secondary antibody was monitored by flow cytometry using a FACS Calibur (BD Biosciences).
(§1) Screening of all combinations of heavy chain versions VH0, VH1, VH2, VH3, VH4, or VH5, with light chains VL0, VL1, VL2, or VL3 was carried out using unpurified proteins in conditioned cell media. The binding of each construct to biotin-conjugated human αvβ5 protein was determined using a solid-phase binding assay (ELISA) and by FACS, and the ability of each construct to block ligand binding was determined using a vitronectin cell adhesion assay (Table 1).

[3] = molecular target: T2, human soluble αvβ5 protein (extracellular domains of human αv and β5 integrin subunits) (human, UniProt P06756 31-992; P18084 24-719); test: ELISA, biotin-αvβ5 on streptavidin plate, unpurified antibody
T2 construct: also called biotin-αvβ5; hsαvβ5
T2 sequence (P06756 31-992 limits assumed, chain 1 of 2): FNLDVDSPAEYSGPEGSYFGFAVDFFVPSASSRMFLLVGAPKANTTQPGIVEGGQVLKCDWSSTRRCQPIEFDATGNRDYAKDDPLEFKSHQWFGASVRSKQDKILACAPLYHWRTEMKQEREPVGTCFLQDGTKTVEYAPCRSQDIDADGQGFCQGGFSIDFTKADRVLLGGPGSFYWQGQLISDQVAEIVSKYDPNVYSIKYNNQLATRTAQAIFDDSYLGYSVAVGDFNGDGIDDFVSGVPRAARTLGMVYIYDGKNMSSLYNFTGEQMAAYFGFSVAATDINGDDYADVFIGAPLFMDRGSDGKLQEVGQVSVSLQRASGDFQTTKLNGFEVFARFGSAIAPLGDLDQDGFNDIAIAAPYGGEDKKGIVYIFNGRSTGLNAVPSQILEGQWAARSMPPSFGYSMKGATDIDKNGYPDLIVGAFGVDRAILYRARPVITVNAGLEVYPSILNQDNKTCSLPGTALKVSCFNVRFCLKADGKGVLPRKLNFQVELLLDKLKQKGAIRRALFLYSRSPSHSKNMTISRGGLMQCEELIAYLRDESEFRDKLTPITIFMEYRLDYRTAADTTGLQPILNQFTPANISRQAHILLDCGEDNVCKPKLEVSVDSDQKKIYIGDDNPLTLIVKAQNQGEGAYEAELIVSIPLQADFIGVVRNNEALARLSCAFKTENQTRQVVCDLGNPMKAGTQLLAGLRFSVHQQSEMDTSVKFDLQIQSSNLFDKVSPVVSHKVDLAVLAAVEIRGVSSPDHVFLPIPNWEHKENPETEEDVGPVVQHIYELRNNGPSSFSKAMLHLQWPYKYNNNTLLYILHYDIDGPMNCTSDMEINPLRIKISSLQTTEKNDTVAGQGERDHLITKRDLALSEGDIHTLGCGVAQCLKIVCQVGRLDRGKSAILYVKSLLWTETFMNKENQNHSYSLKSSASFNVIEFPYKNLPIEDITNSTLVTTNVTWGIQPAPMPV
T2 sequence (P18084 24-719 limits assumed, chain 2 of 2): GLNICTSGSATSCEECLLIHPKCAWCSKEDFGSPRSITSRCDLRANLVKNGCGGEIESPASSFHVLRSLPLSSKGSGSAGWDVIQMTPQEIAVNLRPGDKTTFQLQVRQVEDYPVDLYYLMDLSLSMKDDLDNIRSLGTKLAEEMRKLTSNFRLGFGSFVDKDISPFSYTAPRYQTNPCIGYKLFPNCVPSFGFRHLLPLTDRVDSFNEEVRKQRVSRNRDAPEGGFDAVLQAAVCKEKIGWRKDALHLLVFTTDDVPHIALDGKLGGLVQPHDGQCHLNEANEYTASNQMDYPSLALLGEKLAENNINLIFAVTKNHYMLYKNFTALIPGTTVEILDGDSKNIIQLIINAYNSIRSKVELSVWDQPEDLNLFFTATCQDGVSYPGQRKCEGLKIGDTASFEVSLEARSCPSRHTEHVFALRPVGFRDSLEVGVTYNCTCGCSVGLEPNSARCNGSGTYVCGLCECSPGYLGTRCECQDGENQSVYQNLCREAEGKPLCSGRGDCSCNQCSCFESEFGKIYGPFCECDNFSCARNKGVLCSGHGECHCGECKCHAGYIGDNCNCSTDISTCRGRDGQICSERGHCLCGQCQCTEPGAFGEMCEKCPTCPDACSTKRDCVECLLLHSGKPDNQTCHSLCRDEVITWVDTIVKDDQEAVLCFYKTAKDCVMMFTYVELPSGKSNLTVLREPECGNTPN
Protocol: Solid-Phase αvβ5 Binding Assay (ELISA): A 96-well microtiter plate was precoated with streptavidin (Thermo Scientific Reacti-Bind StreptAvidin Coated High Binding Capacity plate) was used. Biotinylated soluble αvβ5 protein (2 μg/mL) in TBS with 1% BSA was added to the wells, and the plate was incubated for 1 hr at 25° C. The plate was washed with wash buffer (0.05% Tween-20 in PBS), and purified humanized ALULA antibody in TBS containing 1% BSA, 1 mM CaCl2, and 1 mM MgCl2 were added (50 μl/well). The plate was incubated for 1 hr at 25° C., washed, and then incubated for 1 hr with 50 μl/well of […] goat anti-human secondary antibody. Bound antibody was detected using 3,3′,5,5′-tetramethylbenzidine (TMB). Binding was indicated by the absorbency measured at 450 nm.
as §1

T1 sequence (P06756 31-1048 limits assumed, chain 1 of 2): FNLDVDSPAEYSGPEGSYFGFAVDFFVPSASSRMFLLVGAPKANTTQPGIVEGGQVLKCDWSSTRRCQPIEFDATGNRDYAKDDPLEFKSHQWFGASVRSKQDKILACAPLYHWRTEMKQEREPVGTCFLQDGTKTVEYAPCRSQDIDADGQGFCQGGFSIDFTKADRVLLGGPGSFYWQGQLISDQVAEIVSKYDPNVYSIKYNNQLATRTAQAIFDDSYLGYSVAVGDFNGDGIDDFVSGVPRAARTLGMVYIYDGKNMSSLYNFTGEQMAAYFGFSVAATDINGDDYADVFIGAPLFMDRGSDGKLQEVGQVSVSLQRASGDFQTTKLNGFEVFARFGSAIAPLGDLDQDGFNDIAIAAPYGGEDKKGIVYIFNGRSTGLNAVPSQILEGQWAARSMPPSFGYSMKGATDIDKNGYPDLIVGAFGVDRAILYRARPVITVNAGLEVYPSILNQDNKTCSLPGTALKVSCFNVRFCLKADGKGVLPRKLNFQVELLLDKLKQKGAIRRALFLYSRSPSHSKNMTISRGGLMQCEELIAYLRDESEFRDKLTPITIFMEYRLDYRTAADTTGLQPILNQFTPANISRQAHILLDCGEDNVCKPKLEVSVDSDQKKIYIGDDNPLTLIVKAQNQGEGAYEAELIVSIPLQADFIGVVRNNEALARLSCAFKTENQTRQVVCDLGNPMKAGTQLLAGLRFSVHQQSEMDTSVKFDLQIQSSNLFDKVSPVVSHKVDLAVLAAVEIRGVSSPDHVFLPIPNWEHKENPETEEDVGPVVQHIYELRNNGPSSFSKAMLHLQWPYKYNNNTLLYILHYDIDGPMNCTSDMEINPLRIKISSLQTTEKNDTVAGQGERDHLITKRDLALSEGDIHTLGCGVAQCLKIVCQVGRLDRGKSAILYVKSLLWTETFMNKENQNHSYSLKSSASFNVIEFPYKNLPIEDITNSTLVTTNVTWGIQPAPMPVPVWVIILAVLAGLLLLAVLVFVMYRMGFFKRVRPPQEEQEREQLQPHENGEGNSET
T1 sequence (P18084 24-799 limits assumed, chain 2 of 2): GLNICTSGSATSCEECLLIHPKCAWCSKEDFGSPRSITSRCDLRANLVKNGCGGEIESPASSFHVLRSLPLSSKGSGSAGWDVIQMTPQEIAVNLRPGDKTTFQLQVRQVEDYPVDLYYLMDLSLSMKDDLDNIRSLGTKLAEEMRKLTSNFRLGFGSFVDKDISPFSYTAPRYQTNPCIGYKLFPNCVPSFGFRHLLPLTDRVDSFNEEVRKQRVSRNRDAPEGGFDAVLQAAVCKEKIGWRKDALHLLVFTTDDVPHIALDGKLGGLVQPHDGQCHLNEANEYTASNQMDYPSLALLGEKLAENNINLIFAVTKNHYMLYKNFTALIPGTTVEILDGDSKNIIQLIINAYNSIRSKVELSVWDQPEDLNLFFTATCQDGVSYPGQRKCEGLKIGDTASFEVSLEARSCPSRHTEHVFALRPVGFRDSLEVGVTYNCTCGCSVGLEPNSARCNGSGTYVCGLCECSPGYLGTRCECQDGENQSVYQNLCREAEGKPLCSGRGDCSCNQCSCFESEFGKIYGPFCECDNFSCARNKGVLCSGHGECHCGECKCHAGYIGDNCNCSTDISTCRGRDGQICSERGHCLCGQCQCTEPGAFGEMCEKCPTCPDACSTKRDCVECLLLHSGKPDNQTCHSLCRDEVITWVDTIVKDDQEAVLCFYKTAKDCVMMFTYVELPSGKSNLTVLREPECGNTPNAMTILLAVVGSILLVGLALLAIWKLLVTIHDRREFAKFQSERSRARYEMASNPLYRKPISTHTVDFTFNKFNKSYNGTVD

Binder | VN adhesion inhibition, αvβ5-BaF3 (IC50, nM) [1] [nM] | EC50 [2] [nM] | EC50 [3] [nM]
VH1/VL0 Agly-hIgG1(T299A) (antibody, V domains shown, also called H1/L0) VH: EVQVVESGGGLVKPGGSLRLSCAASGYTFTSYWMHWVRQAPGKGLEWVGAIYPGNSDTSYNQKFKGRFTISADTSKNTLYLQMNSLKTEDTAVYYCTTTTYGYDWFAYWGQGTLVTVSS VL: DIQMTQSPSSVSASVGDRVTITCKSSQSVLYSSNQKNYLAWYQQKPGKAPKLLIYWASTRESGVPSRFSGSGSGTDFTLTISSLQPEDFATYYCHQYLSSLTFGQGTKVEIK | 3300 | 3680 | 1
VH1/VL3 Agly-hIgG1(T299A) (antibody, V domains shown, also called H1/L3) VH: EVQVVESGGGLVKPGGSLRLSCAASGYTFTSYWMHWVRQAPGKGLEWVGAIYPGNSDTSYNQKFKGRFTISADTSKNTLYLQMNSLKTEDTAVYYCTTTTYGYDWFAYWGQGTLVTVSS VL: DIQMTQSPSSLTVSVGDRVTMSCKSSQSVLYSSNQKNYLAWYQQKPGKSPKLLIYWASTRESGVPDRFTGSGSGTDFTLTISSVQPEDFATYYCHQYLSSLTFGAGTKLEIK | 1840 | 2930 | 2.9
VH1/VL1 Agly-hIgG1(T299A) (antibody, V domains shown, also called H1/L1) VH: EVQVVESGGGLVKPGGSLRLSCAASGYTFTSYWMHWVRQAPGKGLEWVGAIYPGNSDTSYNQKFKGRFTISADTSKNTLYLQMNSLKTEDTAVYYCTTTTYGYDWFAYWGQGTLVTVSS VL: DIQMTQSPSSLSASVGDRVTMTCKSSQSVLYSSNQKNYLAWYQQKPGKAPKLLIYWASTRESGVPDRFSGSGSGTDFTLTISSLQPEDFATYYCHQYLSSLTFGQGTKLEIK | 2520 | 3360 | 1.9
VH3/VL1 Agly-hIgG1(T299A) (antibody, V domains shown, also called H3/L1) VH: EVQVVESGGGLVKPGGSLRLSCKASGYTFTSYWMHWVKQAPGKGLEWVGAIYPGNSDTSYNQKFKGKFTLSAVTSSNTAYLQMNSLKTEDTAVYYCTTTTYGYDWFAYWGQGTLVTVSS VL: DIQMTQSPSSLSASVGDRVTMTCKSSQSVLYSSNQKNYLAWYQQKPGKAPKLLIYWASTRESGVPDRFSGSGSGTDFTLTISSLQPEDFATYYCHQYLSSLTFGQGTKLEIK | 360 | 1930 | 1.2
VH1/VL2 Agly-hIgG1(T299A) (antibody, V domains shown, also called H1/L2) VH: EVQVVESGGGLVKPGGSLRLSCAASGYTFTSYWMHWVRQAPGKGLEWVGAIYPGNSDTSYNQKFKGRFTISADTSKNTLYLQMNSLKTEDTAVYYCTTTTYGYDWFAYWGQGTLVTVSS VL: NIQMTQSPSSLSASVGDRVTMSCKSSQSVLYSSNQKNYLAWYQQKPGKSPKLLIYWASTRESGVPDRFTGSGSGTDFTLTISSLQPEDFATYYCHQYLSSLTFGQGTKLEIK | 1730 | 5370 | 2.3
VH3/VL3 Agly-hIgG1(T299A) (antibody, V domains shown, also called H3/L3) VH: EVQVVESGGGLVKPGGSLRLSCKASGYTFTSYWMHWVKQAPGKGLEWVGAIYPGNSDTSYNQKFKGKFTLSAVTSSNTAYLQMNSLKTEDTAVYYCTTTTYGYDWFAYWGQGTLVTVSS VL: DIQMTQSPSSLTVSVGDRVTMSCKSSQSVLYSSNQKNYLAWYQQKPGKSPKLLIYWASTRESGVPDRFTGSGSGTDFTLTISSVQPEDFATYYCHQYLSSLTFGAGTKLEIK | 227 | 6290 | 1.2

Now those with a lower EC50 [2], led by results:

VN adhesion inhibition, αvβ5-BaF3 (IC50, nM) [1] [nM] | EC50 [2] [nM] | EC50 [3] [nM] | Binder
494 | 1270 | 0.9 | VH0/VL3 Agly-hIgG1(T299A) (antibody, V domains shown, also called H0/L3) VH: EVQLVESGGGLVKPGGSLRLSCAASGYTFTSYWMHWVRQAPGKGLEWVGAIYPGNSDTSYNQKFKGRFTISRDDSKNTLYLQMNSLKTEDTAVYYCTTTTYGYDWFAYWGQGTLVTVSS VL: DIQMTQSPSSLTVSVGDRVTMSCKSSQSVLYSSNQKNYLAWYQQKPGKSPKLLIYWASTRESGVPDRFTGSGSGTDFTLTISSVQPEDFATYYCHQYLSSLTFGAGTKLEIK
1970 | 855 | 1 | VH0/VL2 Agly-hIgG1(T299A) (antibody, V domains shown, also called H0/L2) VH: EVQLVESGGGLVKPGGSLRLSCAASGYTFTSYWMHWVRQAPGKGLEWVGAIYPGNSDTSYNQKFKGRFTISRDDSKNTLYLQMNSLKTEDTAVYYCTTTTYGYDWFAYWGQGTLVTVSS VL: NIQMTQSPSSLSASVGDRVTMSCKSSQSVLYSSNQKNYLAWYQQKPGKSPKLLIYWASTRESGVPDRFTGSGSGTDFTLTISSLQPEDFATYYCHQYLSSLTFGQGTKLEIK
72.2 | 422 | 1.4 | VH5/VL3 Agly-hIgG1(T299A) (antibody, V domains shown, also called H5/L3) VH: EVQVQQSGGGLVKPGGSLRLSCKASGYTFTSYWMHWVKQAPGKGLEWVGAIYPGNSDTSYNQKFKGKATLSAVTSPNTAYLQMNSLKTEDTAVYYCTTTTYGYDWFAYWGQGTLVTVSS VL: DIQMTQSPSSLTVSVGDRVTMSCKSSQSVLYSSNQKNYLAWYQQKPGKSPKLLIYWASTRESGVPDRFTGSGSGTDFTLTISSVQPEDFATYYCHQYLSSLTFGAGTKLEIK
64.8 | 162 | 1.7 | VH4/VL3 Agly-hIgG1(T299A) (antibody, V domains shown, also called H4/L3) VH: EVQVVQSGGGLVKPGESLRLSCKASGYTFTSYWMHWVKQAPGKGLEWVGAIYPGNSDTSYNQKFKGKFTISADTSPNTAYLQMNSLKTEDTAVYYCTTTTYGYDWFAYWGQGTLVTVSS VL: DIQMTQSPSSLTVSVGDRVTMSCKSSQSVLYSSNQKNYLAWYQQKPGKSPKLLIYWASTRESGVPDRFTGSGSGTDFTLTISSVQPEDFATYYCHQYLSSLTFGAGTKLEIK
303 | 990 | 1 | VH2/VL3 Agly-hIgG1(T299A) (antibody, V domains shown, also called H2/L3) VH: EVQVVQSGGGLVKPGESLRLSCAASGYTFTSYWMHWVKQAPGKGLEWVGAIYPGNSDTSYNQKFKGKFTISADTSSNTAYLQMNSLKTEDTAVYYCTTTTYGYDWFAYWGQGTLVTVSS VL: DIQMTQSPSSLTVSVGDRVTMSCKSSQSVLYSSNQKNYLAWYQQKPGKSPKLLIYWASTRESGVPDRFTGSGSGTDFTLTISSVQPEDFATYYCHQYLSSLTFGAGTKLEIK
318 | 405 | 1 | VH2/VL1 Agly-hIgG1(T299A) (antibody, V domains shown, also called H2/L1) VH: EVQVVQSGGGLVKPGESLRLSCAASGYTFTSYWMHWVKQAPGKGLEWVGAIYPGNSDTSYNQKFKGKFTISADTSSNTAYLQMNSLKTEDTAVYYCTTTTYGYDWFAYWGQGTLVTVSS VL: DIQMTQSPSSLSASVGDRVTMTCKSSQSVLYSSNQKNYLAWYQQKPGKAPKLLIYWASTRESGVPDRFSGSGSGTDFTLTISSLQPEDFATYYCHQYLSSLTFGQGTKLEIK
